± gives the uncertainty stated by the source.
Test: self-splicing fitness, log relative to wild type (ln ratio); higher = more splicing; Tetrahymena group I intron in knt gene, E. coli kanamycin selection, DiMSum; sequences stand for … in CUCUCU…GGAGGGAAAAGUUAUCAGGCAUGCACCUGGUAGCUAGUCUUUAAACCAAUAGAUUGCAUCGGUUUAAAAGGCAAGACCGUCAAAUUGCGGGAAAGGGGUCAACAGCCGUUCAGUACCAAGUCUCAGGGGAAACUUUGAGAUGGCCUUGCAAAGGGUAUGGUAAUAAGCUGACGGACAUGGUCCUAACCACGCAGCCAAGUCCUAAGUCAACAGAUCUUCUGUUGAUAUGGAUGCAGUUCACAGACUAAAUGUCGGUCGGGGAAGAUGUAUUCUUCUCAUAAGAUAUAGUCGGACCUCUCCUUAAUGGGAGCUAGCGGAUGAAGUGAUGCAACACUGGAGCCGCUGGGAACUAAUUUGUAUGCGAAAGUAUAUUGAUUAGUUUUGGAGUACUCGUGGUCG
Method in brief: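 DiMSum derived fitness as the error-weighted combination of fold changes across replicates, kanamycin versus no kanamycin, normalised to wild type. E. coli BL21(DE3) held the library, which randomised all eight P1ex-region intron nucleotides within the knt kanamycin-resistance gene on pET-22b(+). Six replicate transformations grew overnight at 37°C or 30°C on LB agar with or without 25 μg/mL kanamycin, also containing 100 μg/mL carbenicillin, 50 μM IPTG and 0.2% rhamnose, and pooled colonies were amplicon-sequenced on an Illumina HiSeq 2500.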

Sequence | self-splicing fitness (ln) (30 °C) | self-splicing fitness (ln) (37 °C)
AUCAAGCAAUAUUACGGUCU | -1.54 ± 0.11 | -0.196 ± 0.095
AUCAAGCAAUAUUACGUAUA | -2.76 ± 0.23 | -2.31 ± 0.19
AUCCAGCAAUAUUACGACCG | -1.43 ± 0.084 | -0.707 ± 0.12
AUCCAGCAAUAUUACGAGAA | -2.6 ± 0.24 | -1.22 ± 0.22
AUCCAGCAAUAUUACGAUGC | -2.01 ± 0.15 | -0.963 ± 0.17
AUCCAGCAAUAUUACGAUUG | -4.83 ± 0.34 | -3.03 ± 0.24
AUCCAGCAAUAUUACGCAUG | -3.68 ± 0.27 | -0.669 ± 0.13
AUCCAGCAAUAUUACGCCCC | -0.216 ± 0.11 | 0.691 ± 0.19
AUCCAGCAAUAUUACGCGCA | -0.994 ± 0.067 | -0.169 ± 0.081
AUCCAGCAAUAUUACGCUGA | -1.36 ± 0.097 | -1.22 ± 0.13
AUCCAGCAAUAUUACGGAAA | -1.07 ± 0.092 | -1.02 ± 0.084
AUCCAGCAAUAUUACGGAAU | -2.94 ± 0.13 | -1.91 ± 0.17
AUCCAGCAAUAUUACGGAGA | -2.43 ± 0.14 | -0.986 ± 0.12
AUCCAGCAAUAUUACGGAGU | -3.02 ± 0.098 | -1.99 ± 0.11
AUCCAGCAAUAUUACGGCCG | -1.22 ± 0.097 | -0.00834 ± 0.12
AUCCAGCAAUAUUACGGCUA | -0.15 ± 0.092 | -0.19 ± 0.08
AUCCAGCAAUAUUACGGGCU | -3.07 ± 0.16 | -2.64 ± 0.17
AUCCAGCAAUAUUACGGUUU | -1.04 ± 0.05 | -0.324 ± 0.068
AUCCAGCAAUAUUACGUAGC | -2.3 ± 0.08 | -1.78 ± 0.11
AUCCAGCAAUAUUACGUGCU | -2.83 ± 0.17 | -2.88 ± 0.31
AUCCAGCAAUAUUACGUUAG | -3.22 ± 0.17 | -3.56 ± 0.35
AUCCAGCAAUAUUACGUUCC | -1.19 ± 0.13 | -0.575 ± 0.25
AUCCAGCAAUAUUACGUUGA | -1.6 ± 0.077 | -0.866 ± 0.087
AUCGAGCAAUAUUACGAAAG | -2.41 ± 0.13 | -0.783 ± 0.14

Sequence | self-splicing fitness (ln) (30 °C) | self-splicing fitness (ln) (37 °C)
AUCGAGCAAUAUUACGAACG | -2.49 ± 0.22 | -1.65 ± 0.33
AUCGAGCAAUAUUACGACAA | -2.78 ± 0.18 | -2.2 ± 0.18
AUCGAGCAAUAUUACGACAU | -0.347 ± 0.013 | 0.0643 ± 0.033
AUCGAGCAAUAUUACGAGGC |  | -1.13 ± 0.28
AUCGAGCAAUAUUACGCAGA | -3.09 ± 0.18 | -2.46 ± 0.16
AUCGAGCAAUAUUACGCCAU | -2.34 ± 0.31 | -2.79 ± 0.3
AUCGAGCAAUAUUACGCCUG | -3.45 ± 0.36 | -1.78 ± 0.22
AUCGAGCAAUAUUACGCUAC |  | -1.06 ± 0.29
AUCGAGCAAUAUUACGCUAG | -4.43 ± 0.46 | -2.64 ± 0.33
AUCGAGCAAUAUUACGGACU | -0.916 ± 0.16 | -0.737 ± 0.19
AUCGAGCAAUAUUACGGCAA | -2.19 ± 0.15 | -2.06 ± 0.18
AUCGAGCAAUAUUACGGCUA | -1.22 ± 0.12 | -1.28 ± 0.12
AUCGAGCAAUAUUACGGGUA | -2.85 ± 0.16 | -2.15 ± 0.14
AUCGAGCAAUAUUACGGGUG | -3.28 ± 0.14 | -1.89 ± 0.12
AUCGAGCAAUAUUACGUAGC | -4.41 ± 0.42 | -1.79 ± 0.26
AUCGAGCAAUAUUACGUAGG | -3.82 ± 0.39 | -2.04 ± 0.2
AUCGAGCAAUAUUACGUCCG | -3.17 ± 0.31 | -2.94 ± 0.44
AUCGAGCAAUAUUACGUGCC | -2.52 ± 0.2 | -2.22 ± 0.32
AUCGAGCAAUAUUACGUUAA | -3.73 ± 0.27 | -2.48 ± 0.29
AUCUAGCAAUAUUACGAAAG | -3.62 ± 0.27 | -2.15 ± 0.24
AUCUAGCAAUAUUACGAAAU | -1.81 ± 0.11 | -0.899 ± 0.11
AUCUAGCAAUAUUACGAACU | -0.13 ± 0.12 | 0.27 ± 0.12
AUCUAGCAAUAUUACGACUU | -0.1 ± 0.074 | 0.24 ± 0.092
AUCUAGCAAUAUUACGAGAC | -4.67 ± 0.42 | -3.22 ± 0.3

Sequence | self-splicing fitness (ln) (30 °C) | self-splicing fitness (ln) (37 °C)
AUCUAGCAAUAUUACGAGCG | -1.87 ± 0.12 | -1.25 ± 0.15
AUCUAGCAAUAUUACGAGGA | -2.83 ± 0.32 | -2.01 ± 0.21
AUCUAGCAAUAUUACGAGGU | -5.03 ± 0.45 | -3.28 ± 0.43
AUCUAGCAAUAUUACGAUCG | -3.35 ± 0.24 | -1.77 ± 0.27
AUCUAGCAAUAUUACGCACA | -0.774 ± 0.11 | 0.129 ± 0.12
AUCUAGCAAUAUUACGCCCC | -0.911 ± 0.15 | 0.223 ± 0.22
AUCUAGCAAUAUUACGCCGG |  | -1.25 ± 0.34
AUCUAGCAAUAUUACGCUGA | -1.71 ± 0.18 | -0.501 ± 0.13
AUCUAGCAAUAUUACGGAAA | -2.23 ± 0.2 | -1.66 ± 0.18
AUCUAGCAAUAUUACGGACG | -0.422 ± 0.07 | 0.212 ± 0.094
AUCUAGCAAUAUUACGGCCG | -1.43 ± 0.23 | -0.562 ± 0.38
AUCUAGCAAUAUUACGGCUA | -3.6 ± 0.28 | -2.4 ± 0.23
AUCUAGCAAUAUUACGGGAC | -2.44 ± 0.17 | -1.03 ± 0.13
AUCUAGCAAUAUUACGGGAG | -0.833 ± 0.076 | -0.293 ± 0.092
AUCUAGCAAUAUUACGGGGC | -2.42 ± 0.47 | 
AUCUAGCAAUAUUACGGGGU | -3 ± 0.16 | -2.98 ± 0.2
AUCUAGCAAUAUUACGUCAU | -1.41 ± 0.11 | -0.955 ± 0.12
AUCUAGCAAUAUUACGUUAA | -1.84 ± 0.23 | -1.82 ± 0.34
AUGAAGCAAUAUUACGAACU | -0.587 ± 0.074 | 0.606 ± 0.098
AUGAAGCAAUAUUACGAAUC | -1.68 ± 0.23 | 
AUGAAGCAAUAUUACGACAA | 0.158 ± 0.11 | 0.0912 ± 0.12
AUGAAGCAAUAUUACGACCU | 0.893 ± 0.14 | 1.08 ± 0.15
AUGAAGCAAUAUUACGAGCU | -1.52 ± 0.12 | -0.173 ± 0.14
AUGAAGCAAUAUUACGCCCC | 0.963 ± 0.19 | 0.00961 ± 0.23

Sequence | self-splicing fitness (ln) (30 °C) | self-splicing fitness (ln) (37 °C)
AUGAAGCAAUAUUACGCGCA | 0.498 ± 0.096 | 0.526 ± 0.12
AUGAAGCAAUAUUACGCGGU | -2.88 ± 0.24 | -1.71 ± 0.2
AUGAAGCAAUAUUACGCGUU | -2.78 ± 0.12 | -0.429 ± 0.093
AUGAAGCAAUAUUACGCUCA | 0.436 ± 0.068 | 0.555 ± 0.082
AUGAAGCAAUAUUACGCUGC | -2.7 ± 0.24 | -2.42 ± 0.44
AUGAAGCAAUAUUACGGAAA | -2.48 ± 0.15 | -0.666 ± 0.15
AUGAAGCAAUAUUACGGAUG | -0.705 ± 0.063 | 0.152 ± 0.076
AUGAAGCAAUAUUACGGCCG | -0.163 ± 0.18 | 0.947 ± 0.26
AUGAAGCAAUAUUACGGCGC | -0.339 ± 0.074 | 0.665 ± 0.11
AUGAAGCAAUAUUACGGCUA | 0.423 ± 0.092 | 0.486 ± 0.11
AUGAAGCAAUAUUACGGGGU | -2.79 ± 0.23 | -1.21 ± 0.17
AUGAAGCAAUAUUACGGGUA | -1.01 ± 0.097 | -0.761 ± 0.13
AUGAAGCAAUAUUACGUCGC | -2.24 ± 0.14 | -1.28 ± 0.18
AUGAAGCAAUAUUACGUCGG | -0.496 ± 0.1 | -0.498 ± 0.11
AUGAAGCAAUAUUACGUGAA | -1.99 ± 0.088 | -0.731 ± 0.12
AUGAAGCAAUAUUACGUGAG | -1.27 ± 0.083 | -0.0834 ± 0.12
AUGAAGCAAUAUUACGUUGU | -1.99 ± 0.12 | -0.91 ± 0.12
AUGAAGCAAUAUUACGUUUG | -2.28 ± 0.11 | -1.56 ± 0.13
AUGCAGCAAUAUUACGAAAU | -2.02 ± 0.13 | -0.358 ± 0.11
AUGCAGCAAUAUUACGAAGG | -3.78 ± 0.37 | -2.89 ± 0.41
AUGCAGCAAUAUUACGAAUC | -3.82 ± 0.24 | -2.87 ± 0.2
AUGCAGCAAUAUUACGACAC | -0.537 ± 0.077 | 0.312 ± 0.11
AUGCAGCAAUAUUACGACCU | 0.132 ± 0.082 | 0.168 ± 0.087
AUGCAGCAAUAUUACGAGGG | -2.51 ± 0.15 | -3.09 ± 0.26

Reference: the supplement of paper PMC7877785
